Results from publication PMC11040352 (2024).
Starred links: 1 amine or outer side, 2 acyl side, 3 side chain; linkers in the order of their positions; H or OH if unused. Positions of bridges follow the written chain, without caps; N, C: chain ends. Primed or numbered codes have the meaning given here. *: point of attachment. NOTA = O=C(O)CN1CCN(CC(=O)O)CCN(CC(=O)*)CC1; TBMB = c1c(C[*:1])cc(C[*:3])cc1C[*:2]; PEG3′ = not defined here

Target: His-Tagged human CD38 (recombinant) (human, UniProt P28907 1-300)
Assay: SPR

B1: AJ206 (peptide)
peptide: {NOTA-PEG3′}-ACVPCADFPIWYC-NH2
modifications: linker 2-5-13 via TBMB (inferred)
koff: 0.0006 s⁻¹
